The source of these data is IntAct's records for PubMed 16990133.

Sequences and labels used below:
B1: Protein SST2 (Saccharomyces cerevisiae), P11972 (parent)
chain: MVDKNRTLHELSSKNFSRTPNGLIFTNDLKTVYSIFLICLDLKEKKHSSDTKSFLLTAFTKHFHFTFTYQEAIKAMGQLELKVDMNTTCINVSYNIKPSLARHLLTLFMSSKLLHTPQDRTRGEPKEKVLFQPTPKGVAVLQKYVRDIGLKTMPDILLSSFNSMKLFTFERSSVTDSIIHSDYLIHILFIKMMGAKPNVWSPTNADDPLPCLSSLLEYTNNDDTFTFEKSKPEQGWQAQIGNIDINDLERVSPLAHRFFTNPDSESHTQYYVSNAGIRLFENKTFGTSKKIVIKYTFTTKAIWQWIMDCTDIMHVKEAVSLAALFLKTGLIVPVLLQPSRTDKKKFQISRSSFFTLSKRGWDLVSWTGCKSNNIRAPNGSTIDLDFTLRGHMTVRDEKKTLDDSEGFSQDMLISSSNLNKLDYVLTDPGMRYLFRRHLEKELCVENLDVFIEIKRFLKKMTILKKLIDSKHCDKKSNTSTSKNNIVKTIDSALMKQANECLEMAYHIYSSYIMIGSPYQLNIHHNLRQNISDIMLHPHSPLSEHFPTNLYDPSPASAESAASSISSTEADTLGEPPEVSLKPSKNLSNENCSFKKQGFKHQLKEYKPAPLTLAETHSPNASVENSHTIVRYGMDNTQNDTKSVESFPATLKVLRKLYPLFEIVSNEMYRLMNNDSFQKFTQSDVYKDASALIEIQEKC
partner: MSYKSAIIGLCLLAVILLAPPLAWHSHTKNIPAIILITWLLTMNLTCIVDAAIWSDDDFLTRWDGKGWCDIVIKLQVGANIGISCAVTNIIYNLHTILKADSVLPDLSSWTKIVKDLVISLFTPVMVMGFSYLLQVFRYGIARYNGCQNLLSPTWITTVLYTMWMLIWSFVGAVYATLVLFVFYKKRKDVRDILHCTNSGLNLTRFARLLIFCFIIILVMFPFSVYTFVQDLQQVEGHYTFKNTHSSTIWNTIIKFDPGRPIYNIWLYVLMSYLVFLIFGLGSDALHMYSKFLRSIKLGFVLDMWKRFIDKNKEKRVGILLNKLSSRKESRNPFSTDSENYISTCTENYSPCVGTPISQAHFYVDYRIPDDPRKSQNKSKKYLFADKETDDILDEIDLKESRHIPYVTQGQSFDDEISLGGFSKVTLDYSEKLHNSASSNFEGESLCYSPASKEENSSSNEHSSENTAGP
B2: Protein SST2 (Saccharomyces cerevisiae), P11972 (parent)
chain: B1 chain
partner: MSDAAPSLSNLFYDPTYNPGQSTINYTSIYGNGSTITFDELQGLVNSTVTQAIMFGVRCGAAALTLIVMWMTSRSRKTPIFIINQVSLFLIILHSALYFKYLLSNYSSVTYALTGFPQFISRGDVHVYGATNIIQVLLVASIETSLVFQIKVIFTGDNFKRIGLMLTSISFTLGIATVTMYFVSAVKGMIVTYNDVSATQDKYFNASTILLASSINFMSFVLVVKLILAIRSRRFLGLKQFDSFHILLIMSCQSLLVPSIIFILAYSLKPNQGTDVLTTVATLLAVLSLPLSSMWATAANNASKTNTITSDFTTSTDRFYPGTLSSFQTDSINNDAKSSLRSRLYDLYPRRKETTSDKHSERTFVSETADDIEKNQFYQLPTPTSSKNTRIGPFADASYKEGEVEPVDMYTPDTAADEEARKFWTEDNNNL
B3: Pheromone alpha factor receptor (Saccharomyces cerevisiae (Baker's yeast)), P0CI39 (parent)
chain: B2 partner
partner: B1 chain
B4: Pheromone a factor receptor (Saccharomyces cerevisiae), P06783 (parent)
chain: B1 partner
partner: B1 chain

Variants of B1 are the subject of one test. Particulars: with ste3_yeast STE3, P06783.
Q304N: the “effect of a mutation on the interaction” value was “disrupting interaction”.

Another test covers variants of B2. Particulars: with ste2_yeasx STE2, P0CI39.
Turning to Q304N, the “effect of a mutation on the interaction” value is listed as “disrupting interaction”.

The variants in another test derive from B2. The following applies: with ste2_yeasx STE2, P0CI39. This is another data set of the same source.
With Q304L, the “effect of a mutation on the interaction” value is “disrupting interaction”.
The same measure, in the same setting: to Q304E belongs “disrupting interaction”.

The next test covers variants of B3. The following applies: with sst2_yeast SST2, P11972.
Regarding K337R;K352R;K358R;K374R;K387R;K400R;K422R, the “effect of a mutation on the interaction” value is “increasing interaction”.

The next test covers variants of B4. Particulars: with sst2_yeast SST2, P11972.
With K424R;K432R;K453R, the “effect of a mutation on the interaction” value is on record as “increasing interaction”.
